The text below walks through data of patent US20250352576A1 (University of California, published 2025).

In this experiment the target is T1, HLA-A*02:01 on TAP deficient T2 cells (human).
T1 construct: whole, on cells; Endogenous HLA class I of T2 cells, detected with the pan HLA antibody W6/32
Put plainly: T2 cell HLA stabilization assay, flow cytometry with pan HLA antibody W6/32. The protocol: HLA-A*02:01 TAP deficient T2 cells (2×10⁵ in 200 μL) were incubated with peptides (25 μg per ml in 10% DMSO in PBS) in AIM-V plus 1% human serum at 25° C. overnight to facilitate peptide binding by reducing HLA turnover. The following day the cells were returned to 37° C. for 5 hours then stained with a pan HLA antibody (FITC-conjugated HLA, B, C; clone W6/32). HLA class I expression was measured by flow cytometry, and the percent increase in mean fluorescence intensity over cells incubated with 10% DMSO alone was calculated.
(In flow cytometry, cells or beads pass a laser one at a time.)

B1: YMYNKVAVL peptide (Atl2/ATL2 alternative splicing variant) (peptide)
peptide: YMYNKVAVL
notes: Peptide added to T2 cells at 25 ug per ml; also called one of the SYY peptides; candidate therapeutic peptide
With B1, the binding result is “binds”.

B2: SMLEKTALL peptide (Sfxn5/SFXN5 alternative splicing variant) (peptide)
peptide: SMLEKTALL
notes: as for B1
In the case of B2, the binding result is given as “binds”.
